Experimental data: patent US20150246947A1 (BAXALTA, published 2015)

T1: human Protein S (UniProt P07225 42-676)
T1 chain: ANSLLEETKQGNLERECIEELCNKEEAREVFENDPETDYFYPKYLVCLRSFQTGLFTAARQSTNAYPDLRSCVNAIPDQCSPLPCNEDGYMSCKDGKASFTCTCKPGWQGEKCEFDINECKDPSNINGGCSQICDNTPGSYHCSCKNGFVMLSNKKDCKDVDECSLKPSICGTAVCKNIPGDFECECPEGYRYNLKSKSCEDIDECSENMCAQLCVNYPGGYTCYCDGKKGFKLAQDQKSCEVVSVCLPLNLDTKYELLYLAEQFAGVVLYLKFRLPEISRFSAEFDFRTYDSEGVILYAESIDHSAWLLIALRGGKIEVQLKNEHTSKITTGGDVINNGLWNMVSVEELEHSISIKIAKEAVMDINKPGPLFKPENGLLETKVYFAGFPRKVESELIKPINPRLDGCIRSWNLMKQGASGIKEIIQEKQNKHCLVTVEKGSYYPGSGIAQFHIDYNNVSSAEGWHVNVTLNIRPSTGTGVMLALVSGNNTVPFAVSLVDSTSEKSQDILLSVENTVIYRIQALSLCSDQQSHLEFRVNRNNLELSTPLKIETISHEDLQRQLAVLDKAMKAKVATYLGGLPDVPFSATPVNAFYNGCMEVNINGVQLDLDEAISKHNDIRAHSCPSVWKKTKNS


Target: T1, human Protein S
Assay: LANCE competition
Method in brief: (§1)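 This homogeneous time-resolved FRET competition assay (LANCE) used europium-labelled Protein S, ULight-labelled streptavidin and a biotinylated tracer peptide, with unlabelled test peptide titrated in three-fold steps. Final concentrations were 10 nM Protein S, 100 nM streptavidin and 300 nM tracer in 50 µl (or 2 nM Protein S and 60 nM tracer on a Tecan F500). Samples were incubated 1 hour at room temperature and read at Ex 340 nm, Em 665 nm. IC50 came from non-linear regression of the 665 nm signals.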

IC50 [nM]	Binder
12.8	Ac-EEYVSAGWYDMNRDTYTEFY-NH2 [JBS3252]
3.7	Ac-EYYVSAGWYDYNYDVYTEFE-NH2 [JBS3248]

Further lines, the binder ahead of its results:

Binder	IC50 [nM]
Ac-EYTVSAGWYDYNNDIYFEFY-NH2 [JBS3219]	1.1
Ac-EYYVSAGWYDYNTDTYYEFD-NH2 [JBS3231]	1.5
Ac-EYYVSAGWYDYNSDTYQEFI-NH2 [JBS3244]	4.7
Ac-EYYVSAGWYDYNNDTYYEFE-NH2 [JBS3233]	0.9

Target: T1, human Protein S
Assay: LANCE competition
Remark: another data set of the same source
Method in brief: as §1

IC50 [nM]	Binder
6.3	Ac-EHIVSAGWYDYNMDEYYEFW-NH2 [JBS3294]
2.5	Ac-NMYVSAGWYNYNEDTYEEFY-NH2 [JBS3289]
1	Ac-ESYVSAGWYDYNTDTYYEFY-NH2 [JBS3262]
1.2	Ac-FGIISAGWYDYNEDAYSEFY-NH2 [JBS3270]
1.7	Ac-ESIVSAGWYDYNTDEYYEFF-NH2 [JBS3267]
3.7	Ac-EGYVSAGWYDYNKDIYLEFE-NH2 [JBS3259]
1.7	Ac-VIEVSAGWYDYNEDKYYEFW-NH2 [JBS3303]
1.9	Ac-FEYVSAGWYDYNTDTYYEFY-NH2 [JBS3271]
1.2	Ac-EVHVSAGWYDYNNDTYYEFG-NH2 [JBS3275]
1.4	Ac-FEYVIAGWYDYNTDTYHEFN-NH2 [JBS3272]
2	Ac-EYIVEAGWYDINEDKYLEFY-NH2 [JBS3264]
2	Ac-KVEVSAGWYDYNKDVYYEFE-NH2 [JBS3299]
9.5	Ac-EYTASAGWYDYNSDTYYEFE-NH2 [JBS3255]
1.6	Ac-EYSVSAGWYDYNTDVYYEFE-NH2 [JBS3266]
1.5	Ac-VFYVSAGWYDYNDDKYYEFW-NH2 [JBS3304]
3.4	Ac-NMEVSAGWYDYNSDTYHEFW-NH2 [JBS3290]
1.7	Ac-YGIVEAGWYEYNTDEYIEFW-NH2 [JBS3256]
8	Ac-EATVSIGWYDYNKDEYYEFY-NH2 [JBS3291]
2.1	Ac-EAMVSAGWYDYMNDTYYEFE-NH2 [JBS3293]
3.7	Ac-AYIVEAGWYDYNTDTYEEFW-NH2 [JBS3305]
2.8	Ac-EYTVSAGWYNYNADEYYEFE-NH2 [JBS3253]
1.2	Ac-EVYVSAGWYNYNEDAYYEFW-NH2 [JBS3287]
1.4	Ac-HYNVSAGWYDYNNDEYFEFY-NH2 [JBS3307]
1.6	Ac-EYTISAGWYDYNTDMYYEFV-NH2 [JBS3254]
2.7	Ac-EFIVSAGWYDYNKDTYIEFE-NH2 [JBS3292]
1.1	Ac-EYFVSAGWYDYNADIYYEFD-NH2 [JBS3278]
1.3	Ac-IIMVSAGWYDYNTDTYYEFE-NH2 [JBS3301]

The remaining lines, values behind:

Binder	IC50 [nM]
Ac-EYEVSAGWYDYNNDVYNEFY-NH2 [JBS3277]	3.4
Ac-RYIVSAGWYDIIQDTYFEFY-NH2 [JBS3285]	1.2
Ac-EVEVSAGWYDYNDDKYYEFG-NH2 [JBS3276]	3
Ac-EVEVSAGWYEYNTDTYYEFW-NH2 [JBS3282]	4.1
Ac-EYSVSAGWYDYYNDTYYEFY-NH2 [JBS3265]	1.4
Ac-KMHVSIGWYDYNNDIYYEFY-NH2 [JBS3298]	1
Ac-YVTVSAGWYDYNKDEYFEFY-NH2 [JBS3309]	1.1
Ac-FGIVSAGWYDYNTDTYYEPY-NH2 [JBS3269]	56.9
Ac-WYEVEIGWYDYNTDTYQEFY-NH2 [JBS3308]	1.4
Ac-YNEVSAGWYDMNEDTYYEFY-NH2 [JBS3280]	5.3
Ac-YGIVSAGWYEYNTDIYEEFW-NH2 [JBS3257]	14.8
Ac-ESYVSAGWYDYNIDAYYEFY-NH2 [JBS3261]	2
Ac-ITHVTAGWYDYNTDTYYEFI-NH2 [JBS3302]	3.5
Ac-NYIVSAGWYDYNNDEYIEFY-NH2 [JBS3286]	1.3
Ac-YNIVSAGWYDYNKDTYYEFF-NH2 [JBS3279]	1.5
Ac-DVYVSAGWYDYNEDTYYEFS-NH2 [JBS3288]	3.1
Ac-KDKVSAGWYDYNSDTYYEFT-NH2 [JBS3300]	3.2
EYYVSAGWYDYNTDTYYEFEC [JBS3320]	0.5
Ac-ESIVSAGWYDYNTDTYYEFT-NH2 [JBS3268]	1.5
